From article PMC9482650, “Quantitative fragmentomics allow affinity mapping of interactomes” (Nature Communications, 2022)

Experiments:
Assay in all cases: holdup assay
Set-up in all cases: key: below the threshold = too weak to quantify, mostly under pKd 3.1 to 4
AHNAK1, Q09666 = molecular target: AHNAK1, Q09666
ARHGAP21, Q5T5U3 = molecular target: T1, ARHGAP21, Q5T5U3
T1 sequence (Q5T5U3 45-169, limits assumed, looked up): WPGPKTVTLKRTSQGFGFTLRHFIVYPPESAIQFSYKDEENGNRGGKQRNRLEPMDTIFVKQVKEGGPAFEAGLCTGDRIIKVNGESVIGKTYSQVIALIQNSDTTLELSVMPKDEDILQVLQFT

DFNB31_1, Q9P202 = molecular target: T2, DFNB31_1, Q9P202
T2 sequence (Q9P202 135-233, limits assumed, looked up): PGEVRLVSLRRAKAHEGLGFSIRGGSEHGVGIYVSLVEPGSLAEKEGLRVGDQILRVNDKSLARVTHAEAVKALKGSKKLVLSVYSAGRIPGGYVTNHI

DLG2_2, Q15700 = molecular target: DLG2_2, Q15700
DLG3_2, Q92796 = molecular target: T3, DLG3_2, Q92796
T3 sequence (Q92796 221-321, limits assumed, looked up): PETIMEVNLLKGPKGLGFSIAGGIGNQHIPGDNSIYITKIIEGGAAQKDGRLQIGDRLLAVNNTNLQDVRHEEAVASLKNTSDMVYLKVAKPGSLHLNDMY

DLG3_3, Q92796 = molecular target: T4, DLG3_3, Q92796
T4 sequence (Q92796 374-475, limits assumed, looked up): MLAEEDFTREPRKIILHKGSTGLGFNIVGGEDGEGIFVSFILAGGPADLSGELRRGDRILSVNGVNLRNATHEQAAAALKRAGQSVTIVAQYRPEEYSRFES

DLG4_2, P78352 = molecular target: DLG4_2, P78352
FRMPD3, Q5JV73 = molecular target: FRMPD3, Q5JV73
GRASP, Q7Z6J2 = molecular target: GRASP, Q7Z6J2
Inadl_6, Q8NI35 = molecular target: Inadl_6, Q8NI35
LNX1_2, Q8TBB1 = molecular target: LNX1_2, Q8TBB1
LRRC7, Q96NW7 = molecular target: T5, LRRC7, Q96NW7
T5 sequence (Q96NW7 1440-1537, limits assumed, looked up): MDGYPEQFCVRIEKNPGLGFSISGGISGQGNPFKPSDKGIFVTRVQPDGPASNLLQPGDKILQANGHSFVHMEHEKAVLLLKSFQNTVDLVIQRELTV

MPP2, Q14168 = molecular target: T6, MPP2, Q14168
T6 sequence (Q14168 180-250, limits assumed, looked up): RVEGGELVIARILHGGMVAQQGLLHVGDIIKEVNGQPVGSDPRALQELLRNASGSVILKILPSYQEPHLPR

NHERF2_2, Q15599 = molecular target: NHERF2_2, Q15599
NHERF4_2, Q86UT5 = molecular target: NHERF4_2, Q86UT5
PDZRN4_1, Q6ZMN7 = molecular target: PDZRN4_1, Q6ZMN7
PTPN13_1, Q12923 = molecular target: T7, PTPN13_1, Q12923
T7 sequence (Q12923 1088-1188, limits assumed, looked up): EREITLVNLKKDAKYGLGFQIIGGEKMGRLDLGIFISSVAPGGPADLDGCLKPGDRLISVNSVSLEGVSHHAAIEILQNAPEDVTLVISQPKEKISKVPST

PTPN3, P26045 = molecular target: PTPN3, P26045
SCRIB_1, Q14160 = molecular target: SCRIB_1, Q14160
SCRIB_2, Q14160 = molecular target: SCRIB_2, Q14160
SCRIB_3, Q14160 = molecular target: SCRIB_3, Q14160
SHANK1, Q9Y566 = molecular target: T8, SHANK1, Q9Y566
T8 sequence (Q9Y566 658-767, limits assumed, looked up): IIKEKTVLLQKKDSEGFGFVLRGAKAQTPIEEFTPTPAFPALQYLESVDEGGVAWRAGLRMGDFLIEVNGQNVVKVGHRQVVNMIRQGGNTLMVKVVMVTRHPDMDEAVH

SIPA1L2, Q9P2F8 = molecular target: T9, SIPA1L2, Q9P2F8
T9 sequence (Q9P2F8 945-1036, limits assumed, looked up): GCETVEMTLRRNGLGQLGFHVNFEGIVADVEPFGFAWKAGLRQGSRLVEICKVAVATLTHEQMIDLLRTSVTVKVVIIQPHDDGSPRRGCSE

SNTG2, Q9NY99 = molecular target: T10, SNTG2, Q9NY99
T10 sequence (Q9NY99 68-166, limits assumed, looked up): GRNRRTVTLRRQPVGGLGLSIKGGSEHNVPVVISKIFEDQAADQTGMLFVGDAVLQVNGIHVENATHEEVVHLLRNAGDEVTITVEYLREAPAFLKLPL

SYNJ2BP, P57105 = molecular target: T11, SYNJ2BP, P57105
T11 sequence (P57105 8-110, limits assumed, looked up): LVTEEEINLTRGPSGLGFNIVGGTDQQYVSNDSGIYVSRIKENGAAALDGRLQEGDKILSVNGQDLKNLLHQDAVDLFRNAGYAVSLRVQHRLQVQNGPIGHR

TJP3_3, O95049 = molecular target: T12, TJP3_3, O95049
T12 sequence (O95049 375-456, limits assumed, looked up): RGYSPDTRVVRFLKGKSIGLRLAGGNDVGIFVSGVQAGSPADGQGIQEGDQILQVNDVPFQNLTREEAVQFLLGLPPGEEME

[1] = plain residues with an end cap or a label only (N-terminal biotin on a linker: ttds)
[2] = plain residues with an end cap or a label only (N-terminal biotin on a linker: ahx)

Sequence of DLG4_2, P78352 (P78352 155-259): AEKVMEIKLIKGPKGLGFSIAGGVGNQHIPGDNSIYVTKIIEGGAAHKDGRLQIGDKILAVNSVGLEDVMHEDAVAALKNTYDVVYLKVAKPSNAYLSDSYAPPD
Sequence of PDZRN4_1, Q6ZMN7 (Q6ZMN7 213-318): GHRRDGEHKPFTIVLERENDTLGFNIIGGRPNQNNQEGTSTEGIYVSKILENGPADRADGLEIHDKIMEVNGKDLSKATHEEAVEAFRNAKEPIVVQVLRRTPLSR
Sequence of SCRIB_1, Q14160 (Q14160 718-814): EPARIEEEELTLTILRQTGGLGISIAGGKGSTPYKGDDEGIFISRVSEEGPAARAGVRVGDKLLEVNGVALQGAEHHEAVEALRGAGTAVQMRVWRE
Sequence of AHNAK1, Q09666 (Q09666 4-100): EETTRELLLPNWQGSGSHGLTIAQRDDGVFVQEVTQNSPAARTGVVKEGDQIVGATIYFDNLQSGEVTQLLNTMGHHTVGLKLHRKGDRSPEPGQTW
Sequence of Inadl_6, Q8NI35 (Q8NI35 1058-1167): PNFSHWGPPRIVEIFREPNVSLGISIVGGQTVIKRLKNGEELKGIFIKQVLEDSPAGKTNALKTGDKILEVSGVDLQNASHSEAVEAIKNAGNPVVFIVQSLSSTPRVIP
Sequence of GRASP, Q7Z6J2 (Q7Z6J2 96-193): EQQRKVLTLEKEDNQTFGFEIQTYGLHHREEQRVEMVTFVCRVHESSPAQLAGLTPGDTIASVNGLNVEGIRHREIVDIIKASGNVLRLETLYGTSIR
Sequence of DLG2_2, Q15700 (Q15700 189-283): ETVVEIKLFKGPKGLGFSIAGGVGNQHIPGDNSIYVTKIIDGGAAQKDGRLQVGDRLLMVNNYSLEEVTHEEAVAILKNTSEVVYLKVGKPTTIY
Sequence of SCRIB_2, Q14160 (Q14160 857-960): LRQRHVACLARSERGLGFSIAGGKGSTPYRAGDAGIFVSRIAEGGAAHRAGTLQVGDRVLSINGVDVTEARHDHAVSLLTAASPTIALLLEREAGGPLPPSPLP
Sequence of LNX1_2, Q8TBB1 (Q8TBB1 371-470): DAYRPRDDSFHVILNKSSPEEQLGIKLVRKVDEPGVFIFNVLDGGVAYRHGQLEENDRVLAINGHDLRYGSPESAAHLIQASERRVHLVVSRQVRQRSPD
Sequence of SCRIB_3, Q14160 (Q14160 999-1103): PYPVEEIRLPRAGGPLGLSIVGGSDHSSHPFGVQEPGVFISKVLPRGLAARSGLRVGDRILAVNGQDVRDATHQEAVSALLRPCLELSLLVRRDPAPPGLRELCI
Sequence of PTPN3, P26045 (P26045 505-587): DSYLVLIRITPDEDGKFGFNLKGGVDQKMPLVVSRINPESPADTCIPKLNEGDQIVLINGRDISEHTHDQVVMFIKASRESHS
Sequence of NHERF4_2, Q86UT5 (Q86UT5 220-308): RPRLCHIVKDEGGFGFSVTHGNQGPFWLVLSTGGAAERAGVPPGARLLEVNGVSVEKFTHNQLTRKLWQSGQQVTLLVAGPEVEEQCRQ
Sequence of NHERF2_2, Q15599 (Q15599 142-238): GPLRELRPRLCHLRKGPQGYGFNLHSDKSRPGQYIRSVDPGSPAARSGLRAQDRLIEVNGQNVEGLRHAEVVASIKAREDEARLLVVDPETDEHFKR
Sequence of FRMPD3, Q5JV73 (Q5JV73 12-100): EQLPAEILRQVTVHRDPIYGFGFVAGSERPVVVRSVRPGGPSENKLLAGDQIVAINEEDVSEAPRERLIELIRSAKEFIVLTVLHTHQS

B1: KCNA5, P22460 (peptide)
chain: CLDTSRETDL
For B1, the pKd (AHNAK1, Q09666; [1]) was “below the threshold”, the pKd (ARHGAP21, Q5T5U3; [1]) was 3.78 and the pKd (DFNB31_1, Q9P202; [1]) was 3.84. The pKd (DLG2_2, Q15700; [1]) was 4.19, the pKd (DLG3_2, Q92796; [1]) was 4.35 and the pKd (DLG3_3, Q92796; [1]) was “below the threshold”. For the same binder, the pKd (DLG4_2, P78352; [1]) was 4.43, the pKd (FRMPD3, Q5JV73; [1]) was “below the threshold” and the pKd (GRASP, Q7Z6J2; [1]) was “below the threshold”. For the same binder, the pKd (Inadl_6, Q8NI35; [1]) was 3.93, the pKd (LNX1_2, Q8TBB1; [1]) was “below the threshold” and the pKd (LRRC7, Q96NW7; [1]) was 3.68. For the same binder, the pKd (MPP2, Q14168; [1]) was “below the threshold”, the pKd (NHERF2_2, Q15599; [1]) was 4.49 and the pKd (NHERF4_2, Q86UT5; [1]) was “below the threshold”. The pKd (PDZRN4_1, Q6ZMN7; [1]) was 3.98, the pKd (PTPN13_1, Q12923; [1]) was “below the threshold” and the pKd (PTPN3, P26045; [1]) was 4.92. For the same binder, the pKd (SCRIB_1, Q14160; [1]) was 4.76, the pKd (SCRIB_2, Q14160; [1]) was 4.35 and the pKd (SCRIB_3, Q14160; [1]) was 5.23. For the same binder, the pKd (SHANK1, Q9Y566; [1]) was 3.5, the pKd (SIPA1L2, Q9P2F8; [1]) was “below the threshold” and the pKd (SNTG2, Q9NY99; [1]) was 4.45. The pKd (SYNJ2BP, P57105; [1]) was 4.2 and the pKd (TJP3_3, O95049; [1]) was “below the threshold”.

B2: RAPGEF2, Q9Y4G8 (peptide)
chain: EDEDEQVSAV
With B2 the pKd (AHNAK1, Q09666; [2]) was “below the threshold”, the pKd (ARHGAP21, Q5T5U3; [2]) was “below the threshold” and the pKd (DFNB31_1, Q9P202; [2]) was “below the threshold”. The pKd (DLG2_2, Q15700; [2]) was “below the threshold”, the pKd (DLG3_2, Q92796; [2]) was 3.87 and the pKd (DLG3_3, Q92796; [2]) was “below the threshold”. The pKd (DLG4_2, P78352; [2]) was 3.95, the pKd (FRMPD3, Q5JV73; [2]) was “below the threshold” and the pKd (GRASP, Q7Z6J2; [2]) was 4.86. For the same binder, the pKd (Inadl_6, Q8NI35; [2]) was 3.81, the pKd (LNX1_2, Q8TBB1; [2]) was “below the threshold” and the pKd (LRRC7, Q96NW7; [2]) was “below the threshold”. For the same binder, the pKd (MPP2, Q14168; [2]) was “below the threshold”, the pKd (NHERF2_2, Q15599; [2]) was 3.68 and the pKd (NHERF4_2, Q86UT5; [2]) was “below the threshold”. For the same binder, the pKd (PDZRN4_1, Q6ZMN7; [2]) was “below the threshold”, the pKd (PTPN13_1, Q12923; [2]) was “below the threshold” and the pKd (PTPN3, P26045; [2]) was 4.39. The pKd (SCRIB_1, Q14160; [2]) was “below the threshold”, the pKd (SCRIB_2, Q14160; [2]) was “below the threshold” and the pKd (SCRIB_3, Q14160; [2]) was “below the threshold”. The pKd (SHANK1, Q9Y566; [2]) was 4.28, the pKd (SIPA1L2, Q9P2F8; [2]) was “below the threshold” and the pKd (SNTG2, Q9NY99; [2]) was “below the threshold”. For the same binder, the pKd (SYNJ2BP, P57105; [2]) was 3.49 and the pKd (TJP3_3, O95049; [2]) was “below the threshold”.

B3: CFTR, P13569 (peptide)
chain: TEEEVQDTRL
For B3, the pKd (AHNAK1, Q09666; [1]) was “below the threshold”, the pKd (ARHGAP21, Q5T5U3; [1]) was “below the threshold” and the pKd (DFNB31_1, Q9P202; [1]) was 3.79. For the same binder, the pKd (DLG2_2, Q15700; [1]) was “below the threshold”, the pKd (DLG3_2, Q92796; [1]) was “below the threshold” and the pKd (DLG3_3, Q92796; [1]) was “below the threshold”. The pKd (DLG4_2, P78352; [1]) was “below the threshold”, the pKd (FRMPD3, Q5JV73; [1]) was “below the threshold” and the pKd (GRASP, Q7Z6J2; [1]) was “below the threshold”. For the same binder, the pKd (Inadl_6, Q8NI35; [1]) was “below the threshold”, the pKd (LNX1_2, Q8TBB1; [1]) was “below the threshold” and the pKd (LRRC7, Q96NW7; [1]) was “below the threshold”. For the same binder, the pKd (MPP2, Q14168; [1]) was “below the threshold”, the pKd (NHERF4_2, Q86UT5; [1]) was “below the threshold” and the pKd (PDZRN4_1, Q6ZMN7; [1]) was 3.99. The pKd (PTPN13_1, Q12923; [1]) was “below the threshold”, the pKd (PTPN3, P26045; [1]) was 4.21 and the pKd (SCRIB_1, Q14160; [1]) was 5.42. The pKd (SCRIB_2, Q14160; [1]) was “below the threshold”, the pKd (SCRIB_3, Q14160; [1]) was “below the threshold” and the pKd (SHANK1, Q9Y566; [1]) was 5.07. The pKd (SIPA1L2, Q9P2F8; [1]) was “below the threshold”, the pKd (SNTG2, Q9NY99; [1]) was 4.37 and the pKd (SYNJ2BP, P57105; [1]) was “below the threshold”. The pKd (TJP3_3, O95049; [1]) was “below the threshold”.

B4: PDLIM7, Q9NR12;Q9NR12-1 (peptide)
chain: LCKSHAFSHV
With B4 the pKd (AHNAK1, Q09666; [2]) was “below the threshold”, the pKd (ARHGAP21, Q5T5U3; [2]) was “below the threshold” and the pKd (DFNB31_1, Q9P202; [2]) was “below the threshold”. The pKd (DLG3_2, Q92796; [2]) was “below the threshold”, the pKd (DLG3_3, Q92796; [2]) was “below the threshold” and the pKd (DLG4_2, P78352; [2]) was 3.49. For the same binder, the pKd (FRMPD3, Q5JV73; [2]) was “below the threshold”, the pKd (Inadl_6, Q8NI35; [2]) was “below the threshold” and the pKd (LNX1_2, Q8TBB1; [2]) was “below the threshold”. For the same binder, the pKd (LRRC7, Q96NW7; [2]) was “below the threshold”, the pKd (MPP2, Q14168; [2]) was “below the threshold” and the pKd (NHERF2_2, Q15599; [2]) was “below the threshold”. For the same binder, the pKd (NHERF4_2, Q86UT5; [2]) was “below the threshold”, the pKd (PDZRN4_1, Q6ZMN7; [2]) was “below the threshold” and the pKd (PTPN13_1, Q12923; [2]) was “below the threshold”. For the same binder, the pKd (PTPN3, P26045; [2]) was “below the threshold”, the pKd (SCRIB_1, Q14160; [2]) was “below the threshold” and the pKd (SCRIB_2, Q14160; [2]) was “below the threshold”. The pKd (SCRIB_3, Q14160; [2]) was “below the threshold”, the pKd (SHANK1, Q9Y566; [2]) was “below the threshold” and the pKd (SIPA1L2, Q9P2F8; [2]) was “below the threshold”. For the same binder, the pKd (SNTG2, Q9NY99; [2]) was “below the threshold” and the pKd (TJP3_3, O95049; [2]) was “below the threshold”.
